The data set has as its system pdt-tagged sfGFP.

Regarding mf-Lon, the “signal decay of pdt-tagged sfGFP (protein degradation) on mixing extracts” value is “Increasing the concentration of mf-Lon and supplying additional ATP (a co-substrate for the reaction) results in some signal decay”.

(Values after US20210163947.)
